According to paper PMC4838857, “Tum/RacGAP functions as a switch activating the Pav/kinesin-6 motor” (Nature Communications, 2016):

Key:
[1] = target: Pav/kinesin-6 (Pavarotti, Pav-KLP), full length with C-terminal 6xHis (Drosophila melanogaster); assay: SEC + other: sucrose gradient sedimentation; hydrodynamic analysis (Siegel and Monty) of centralspindlin purified from co-expression: Superose 6 and 5-20% sucrose gradient, 4 °C
[2] = target: Pav/kinesin-6 (Pavarotti, Pav-KLP), full length with C-terminal 6xHis (Drosophila melanogaster); assay: SEC + other: sucrose gradient sedimentation; hydrodynamic analysis (Siegel and Monty) of the in vitro add-back: equal molar Pav/kinesin-6 and Tum/RacGAP, purified apart, mixed and incubated
[3] = target: Pav/kinesin-6 (Pavarotti, Pav-KLP), full length with C-terminal 6xHis (Drosophila melanogaster); assay: SEC + other: sucrose gradient sedimentation; hydrodynamic analysis (Siegel and Monty) of each protein alone: Stokes radius by Superose 6, S value on 5-20% sucrose gradient, 9 h at 55,000 r.p.m., 4 °C
[4] = target: Pav/kinesin-6 (Pavarotti, Pav-KLP), full length with C-terminal 6xHis (Drosophila melanogaster)
[5] = target: Tum/RacGAP (Tumbleweed, RacGAP50C), full length with C-terminal 6xHis (Drosophila melanogaster); assay: SEC + other: sucrose gradient sedimentation; hydrodynamic analysis (Siegel and Monty) of the in vitro add-back: equal molar Pav/kinesin-6 and Tum/RacGAP, purified apart, mixed and incubated
[6] = target: Tum/RacGAP (Tumbleweed, RacGAP50C), full length with C-terminal 6xHis (Drosophila melanogaster); assay: SEC + other: sucrose gradient sedimentation; hydrodynamic analysis (Siegel and Monty) of each protein alone: Stokes radius by Superose 6, S value on 5-20% sucrose gradient, 9 h at 55,000 r.p.m., 4 °C
[7] = target: Tum/RacGAP (Tumbleweed, RacGAP50C), full length, untagged, co-expressed with Pav/kinesin-6 (Drosophila melanogaster); assay: SEC + other: sucrose gradient sedimentation; hydrodynamic analysis (Siegel and Monty) of centralspindlin purified from co-expression: Superose 6 and 5-20% sucrose gradient, 4 °C
[8] = substrate: Nc1ncnc2c1ncn2[C@@H]1O[C@H](COP(=O)(O)OP(=O)(O)OP(=O)(O)O)[C@@H](O)[C@H]1O; assay: microtubule gliding velocity vs [MgATP], Lineweaver-Burk; type: biochemical, Drosophila melanogaster; settings: motility-derived Km, saturating taxol-stabilised microtubules, Mg2+, pH 8.0, 150 mM KCl
Text: microtubule gliding velocity vs [MgATP], Lineweaver-Burk on centralspindlin (co-expressed Pav/Tum)

Q: “Pav/kinesin-6 (Pavarotti, Pav-KLP), full length with C-terminal 6xHis (natural protein)” was tested. Which stoichiometry N [1] did it give?
A: The stoichiometry N was 2 subunits.

Q: And the stoichiometry N [2]?
A: The stoichiometry N was 2 subunits.

Q: What about the stoichiometry N [3] of the same molecule?
A: The stoichiometry N was 2 subunits.

Q: How did the MT gliding velocity of Pav+Tum1-65 (in vitro add-back); Pav/kinesin-6 alone 0 [4] turn out when “Tum1-65 fragment (1-65aa of Tum/RacGAP) with C-terminal 6xHis (domain or fragment)” was run?
A: Its MT gliding velocity of Pav+Tum1-65 (in vitro add-back); Pav/kinesin-6 alone 0 is 0.075 μm s^-1.

Q: With “Tum/RacGAP (Tumbleweed, RacGAP50C), full length with C-terminal 6xHis (natural protein)” as the molecule, how does the MT gliding velocity of Pav+Tum (in vitro add-back, equal molar); Pav/kinesin-6 alone 0 [4] read?
A: Its MT gliding velocity of Pav+Tum (in vitro add-back, equal molar); Pav/kinesin-6 alone 0 is 0.062 μm s^-1.

Q: And the stoichiometry N [5]?
A: The stoichiometry N was 2 subunits.

Q: What about the stoichiometry N [6] of the same molecule?
A: The stoichiometry N was 2 subunits.

Q: With “Tum/RacGAP (Tumbleweed, RacGAP50C), full length, untagged, co-expressed with Pav/kinesin-6 (natural protein)” as the molecule, how does the MT gliding velocity of centralspindlin (co-expressed Pav/Tum); Pav/kinesin-6 alone 0 [4] read?
A: Its MT gliding velocity of centralspindlin (co-expressed Pav/Tum); Pav/kinesin-6 alone 0 is 0.103 μm s^-1.

Q: What about the stoichiometry N [7] of the same molecule?
A: The stoichiometry N was 2 subunits.

B1: centralspindlin (co-expressed Pav/Tum) (Drosophila melanogaster) (protein)
chain: MKAVPRTPMRVVPKTPRVHQTVEKQRRDTSDKARDPVNVFCRVRPLQSDADLTSLRVKNSTTIALNPQDQLLQHHKPHNGAQREVQYIFKHVFQPDATQQDVYAAVAQPLVENLLKGRNSLLFTYGVTGSGKTYTMTGNLRHRGIMPRCLDVLFRTISDYQAKKFVFKPDKLNGFEILSEEDALLERQHEMNQRFAGSGRFAFRHKDSDPEIASQASVEPIPLLGLDEDNMYSVFVTYIEIYNNSVYDLLEDSGIQKTLQSKIIREDANRHMFVHGVTEVEVKTVEDALEVFQMGQKRKRMGHTVLNAESSRSHSVFNIRLVQAPTDSQGENVVQDRQNITVSQLSLVDLAGSERSSRTKNTGVRLREAGNINNSLMTLRTCLEYLRENQLAASNGLAPKKVPYRDSKITHMFKNYFDGEGQVSMIVCINPRIEDYDENMQVMKFAEMTQEVQIARATPMKQDLGLTPGRRKANKLFKIAVNNLNELGIPEAKDLEVDVGLVYSLGPDFPAYEMDSPEAQIKIRELMHYLEQRIEKRKKLRANLDIKCDSFRQMLMNLDRDNLQLRTELASLKAVYKQERDRSAALEKKVRIHESSIDVLNNTLSKQERQIEELTFKLNEKENMLTQKEHEKEKQKKKFSSKLAVESDKNKREFELKLREQRVKLQERMRIKDEKLRLVSNILQSEDLPSLPRSQSSENILNEKDRGAYTARTEESSVPATRTDIYATPRHGAAAANNRHRRSRSAGDKWLEHRAANPVPLGTIMQPYLKNRKSVTKLTDLKELTAHGTTKYCLVSQDADTDGDVETKLYKGNVIPTCGGGAQVVFNDVECLKQKSPVHSPTRKRPSNGNISALGGGAVPSTVTSAQDVASRCNLGIEGHSSKKSKI
notes: full-length Pav with C-terminal 6xHis co-expressed with untagged full-length Tum in Sf9 (baculovirus), Ni-NTA and Superose 6; heterotetramer 372 kDa (2 Pav 107 kDa + 2 Tum 65 kDa); cDNA errors in Tum corrected
Q: Which Km [8] does the source give for B1 here?
A: The Km was 79 ± 13 µM.
